Laboratory results published in the nanobody polyreactivity screen of Harvey et al. (2022).

Experiment: yeast display, Sf9 membrane polyspecificity reagent, FACS + sequencing; frameworks hold sequencing errors
Procedure, shortened: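 After 36–48 hours of galactose induction, yeast (Saccharomyces cerevisiae BJ5465) displaying a synthetic nanobody library were stained at 4 °C for 1 hour with 10% biotinylated, detergent-solubilized Sf9 membrane reagent. Streptavidin microbeads enriched the stained cells before FACS sorting into low and high (top ~1%) gates on anti-HA and streptavidin fluorescence. Each clone's polyreactivity label reflects its gate of origin.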
In the case of “QVQLVESGGGLVQAGGILRLSCASSGRIFGVNAMGWYRQATGKERELVATISSGGSTYYADSVKGRFTISRDNAKNTVYLQLNSLKPEDTAVYYCAADTRRYYLARYRTDYWGQGTQVTVSS”, the “polyreactivity (PSR sort gate)” value is reported as “high polyreactivity”.
For “QVQLVESGGGLVQAGGILRLSCASSGRTFKSYTMGWYRQAPGKERELVASISVSGGRTYYADSVKGRFTISRDNAKNTVYLQMNSLKPEDTAVYYCAAYYVHYRPVRGYDYWGQGTEVTVSS”, the “polyreactivity (PSR sort gate)” value was “high polyreactivity”.
In the case of “QVQLVESGGGLVQAGGILRLSSAASGFIFKANAMGWSRQAPGKERELVAVITRRGGSTYYADSVKGSFTISRDNAKNTVYLQMNSLKREDTAVYYSAKEGSARYGPSDAYDYWGQGTQVTVSS”, the “polyreactivity (PSR sort gate)” value is reported as “high polyreactivity”.
In the case of “QVQLVESGGGLVQAGGILRLSSAASGFTFYLYTMGWYTPAPGKERELVAAISRSGDRTYYADSVKGRFTISRDNAKNTVYLQMNSLKPEDTAVYYCNAYTSYPNTMDYWGQGTQVTVSS”, the “polyreactivity (PSR sort gate)” value is reported as “high polyreactivity”.
In the case of “QVQLVESGGGLVQAGGILRLTSAGSGFNYYPYDMGWSRQAPGKERELVAAITQSGGSTYYADSVKGRFTISRDNAKITVYLQMISLKPEDTAVYSCNADTRGEYTYVSWYDYWGQGSQVTVSS”, the “polyreactivity (PSR sort gate)” value is reported as “low polyreactivity”.
With “QVQLVESGGGLVQAGGILSLSCAASGFTFTVYDMGWYRQAPGKERELVAVITSGDGTYYADSVKGRFTISRDNAKNTVYLQMNSLKPEDTAVYYCNARRYSSFRYRFAYDYWGQGTQVTVTS” the “polyreactivity (PSR sort gate)” value was “low polyreactivity”.
For “QVQLVESGGGLVQAGGNLRLSCAASGLIFGGYAMGWYRPAPGKERELVAAISRTGGRTYYADSVKVRFTISRDNAKNTVYLQMNSLKPEDTAVYYCATKRWWVRYDYWGQGTQVTVSS”, the “polyreactivity (PSR sort gate)” value was “high polyreactivity”.
For “QVQLVESGGGLVQAGGRHPVSCAASGRTIAYNAKGLYRQATGKERELVASITSGGSTNYADSVKGRFTISRDYAKNTVYLQMNSLKQEHTADYYFNKDGKYHRVLFEYWGQGTQVTVSS”, the “polyreactivity (PSR sort gate)” value was “low polyreactivity”.
In the case of “QVQLVESGGGLVQAGGRLLLSCAASGGTFYRNAMGWYRLAPGKERELVASISRTGGSTYYADSVKGRFTISRDNAKNTVYLQMNSMKPEDTAVYYCNALPYSRGRWRPLSAVDYWGQGTQVTVSS”, the “polyreactivity (PSR sort gate)” value is reported as “high polyreactivity”.
In the case of “QVQLVESGGGLVQAGGRLRFSCAASGSTFRPNAMGWYRQAPGNERELVAAITRPGGSTFYADSVKGRFTISRDYAKHTVYLQMNSLKPEDTAVYYCATRQRVDLAPLARYGYWGQGTQVTVSS”, the “polyreactivity (PSR sort gate)” value is reported as “low polyreactivity”.
In the case of “QVQLVESGGGLVQAGGRLRLICAASASNFAGYDKGWYRQAPGKERELVAAITSGGDTYYADSVKGRFTISRDNAKNTGYLQMNSLKPEDTAVYYCNKDYILARYGGGRDYWGQGTQVTVSS”, the “polyreactivity (PSR sort gate)” value is reported as “low polyreactivity”.
With “QVQLVESGGGLVQAGGRLRLRCAACGFTFARYAMGRSSQAPGKERELLAAITWSAGSTYYADSVKGRFTISRDTGKNTVFLQMTRLKPEDTAVYYCNALVIARNIEMDYWGQGTQVTVSS” the “polyreactivity (PSR sort gate)” value was “high polyreactivity”.
For “QVQLVESGGGLVQAGGRLRLSCAASAFTFYYYAMGWYRPAPGKERELVAAISWSGGSTYYADSVKGRFTFSRDNAKNTVYLQMNSLKPEDTAVYYCAADVYKQYGYYYWGQGTQVTVSS”, the “polyreactivity (PSR sort gate)” value was “high polyreactivity”.
For “QVQLVESGGGLVQAGGRLRLSCAASGFIFAYYAMGWYRQAPGKERELVAAITIDGSTNYADSVKGRFTISRDNAKNTVYLQMNSLKPEDTAVYYCAAADHPPVCYGYWGQGTQVTVSS”, the “polyreactivity (PSR sort gate)” value was “low polyreactivity”.
In the case of “QVQLVESGGGLVQAGGRLRLSCAASGFIFIRNAMGWYRQAPGKERELVAAITRSGGRTYYADSVKGRFTISRDKAKNTVYLQMNSLKPEDTAVYYCAADADAAWGQGTQVTVSS”, the “polyreactivity (PSR sort gate)” value is reported as “high polyreactivity”.
With “QVQLVESGGGLVQAGGRLRLSCAASGFIFRAYAMGWYRQAPGKERELVAAISRGGGTYYADSVKGRFTISRDNAKNTVYLQMNSLKPEDTAVYYCAVDLLRRGFTTVVTTYDYWGQGTQVTVSS” the “polyreactivity (PSR sort gate)” value was “high polyreactivity”.
In the case of “QVQLVESGGGLVQAGGRLRLSCAASGFIFSLYAMGWYRQAPGKERELVAGISESGGSTYYADSVKGRFTISRDNAKNTVYLQMNSLKPEDTAVYYCNADDTVYFIKAGDYWGQGTQVTVSS”, the “polyreactivity (PSR sort gate)” value is reported as “high polyreactivity”.
For “QVQLVESGGGLVQAGGRLRLSCAASGFIFSYYTMGCYRQAPGKERELVAAIRSSGGSTYADSVKGRFTISRDNAKNTVYLQMNSLNPEDTAVYYGAGGYYWNEPLYWYGDFDYWGQGTQVTVSS”, the “polyreactivity (PSR sort gate)” value was “high polyreactivity”.
With “QVQLVESGGGLVQAGGRLRLSCAASGFTFKLYAMGWYRQAPGKERELVASISRSGGSTFYADSVKGRFTISRDTAKNTGYLQMNSLKPEDTAVYYCATGWYYSPYNYWGQGTQVTVSS” the “polyreactivity (PSR sort gate)” value was “high polyreactivity”.
For “QVQLVESGGGLVQAGGRLRLSCAASGFTFYYNDMGWYRQAPGKERELVAAITWSGGSTYYADSVKGRFTISRDNAKNTVYLQMNSLKPEDTAVYYCNARYWVHGYRYYYWGQGTQVTVSS”, the “polyreactivity (PSR sort gate)” value was “high polyreactivity”.
For “QVQLVESGGGLVQAGGRLRLSCAASGGIFGSYAMGWYRQAPGKERELVADITQSGGRTRYADSVKGRFTISRDNAKNTVYLQMNSLKPEDTAVYYCNAQDVDSGDDYDYWGQGTQVTVSS”, the “polyreactivity (PSR sort gate)” value was “low polyreactivity”.
With “QVQLVESGGGLVQAGGRLRLSCAASGGIFSTYTRGWYRQEPGKERELVAAITTGNSTYYADSVKGRFTISRDNAKNTVYLQMNSLKPEDTAVYYCAADTIGYHYWYDYWGQGTQVTVSS” the “polyreactivity (PSR sort gate)” value was “low polyreactivity”.
In the case of “QVQLVESGGGLVQAGGRLRLSCAASGGTFVPYAMGWYRQAPGTERELVARISKRGGTTYYADSVKGRFTISRDTAKNTVYLQMNSVKPEDTAVYYCGAVLPARGYYWGEGTQVTVSS”, the “polyreactivity (PSR sort gate)” value is reported as “high polyreactivity”.
In the case of “QVQLVESGGGLVQAGGRLRLSCAASGGTFYTYFMGWYRQAPGKERELVAAISQSGGRTYYADSVKGRFTISRDNAKNTVYLQMISLKPEDTAVYYCAAPDESYSFWRLDGLDYWGQGTQVTVSS”, the “polyreactivity (PSR sort gate)” value is reported as “high polyreactivity”.
With “QVQLVESGGGLVQAGGRLRLSCAASGIIFASNAMGWYCQAPGKERELVAAISRSGGRTYYADSVKGRFTISRDNAKNTVYLQMNSLKPEDTAVYYCAILARSGTLPYYYWGQGTQVNVSS” the “polyreactivity (PSR sort gate)” value was “high polyreactivity”.
With “QVQLVESGGGLVQAGGRLRLSCAASGIIFAWYAMGWSRQAPGKERELVAAITSGGSTYYADSVKGRFTISRDNAKNTVYLQMNSLKPDDTAVYYCAASDASTGYLGRHYYWGPGTQVTVSS” the “polyreactivity (PSR sort gate)” value was “high polyreactivity”.
With “QVQLVESGGGLVQAGGRLRLSCAASGIIFGGYSMGWYRQAPGKERELVADITWSGGSTTYADSVKGRFTISRDNAKNTVYLQMNSLKPEDTAVYYCAAEDYYIYREPYDYWGQGTQVTVSS” the “polyreactivity (PSR sort gate)” value was “low polyreactivity”.
In the case of “QVQLVESGGGLVQAGGRLRLSCAASGIIFRVYTMGWYRPEPGKERELVATISLGVARTYYADSVKGRFTISRDNAKYTVYLQMNSLKPEDTAVYYCAKRRGGQGNYWGQGTQVTVSS”, the “polyreactivity (PSR sort gate)” value is reported as “high polyreactivity”.
With “QVQLVESGGGLVQAGGRLRLSCAASGIIFVVNDMGWYRQAPGKEWELVADISDSGGSTNYADSVKGRFTISRDKAKNTVYLQMNSLKPEDTAVYYCAADSADPTEYDYWGQGTQVTVSS” the “polyreactivity (PSR sort gate)” value was “low polyreactivity”.
In the case of “QVQLVESGGGLVQAGGRLRLSCAASGITFPGNVMGWSRHAPGKERELVAAISSTGSTNYADSVKGRFTISRDNAKNTVYLQMNSLKPEDTAVYYCAARFWYDYRHYDYWGQGTQVTVSS”, the “polyreactivity (PSR sort gate)” value is reported as “low polyreactivity”.
For “QVQLVESGGGLVQAGGRLRLSCAASGITFRTNTMGWYRPAPGKERELVASISSGTRTNYADSVKGRFTISRDNAKNTVYLQLNSLKPVDTAVYYCAAGPPRTRYRNARFDYWGQGTQVTVSS”, the “polyreactivity (PSR sort gate)” value was “high polyreactivity”.
For “QVQLVESGGGLVQAGGRLRLSCAASGIVFKRYAKGWYRQAPGKEREFVATISYTGGRTYYADSVKGRFTISRDTAKNTVYLQMNSLKPEDTAVYYCATLYRSSKHQPLDYWGQGTQVTVSS”, the “polyreactivity (PSR sort gate)” value was “high polyreactivity”.
